From publication PMC5372681, “Study of Different Variants of Mo Enzyme crARC and the Interaction with Its Partners crCytb5-R and crCytb5-1” (International Journal of Molecular Sciences, 2017)

Target: T1, crARC, Chlamydomonas reinhardtii mARC (mitochondrial Amidoxime Reducing Component), wild type (Chlamydomonas reinhardtii)
T1 construct: crARC, Chlamydomonas reinhardtii mARC, GenPept XP_001694549; Carries the Mo Cofactor; The mutant cDNAs were cloned in pQE80 (N-terminal six histidines); also called wild type crARC; Mo enzyme crARC; source: E. coli TP1000 (mobA), purified (Ni-NTA, PD10 desalting)
Assay: SEC; two proteins incubated together for 10 min, then loaded; 15 pmol of each; Superdex 200 10/300 GL, 50 mM phosphate buffer pH 7.2, 0.15 M NaCl, 0.75 mL/min; peak fractions checked by SDS-PAGE
Conditions: both partners purified

B1: crCytb5-R, Chlamydomonas reinhardtii NADH cytochrome b5 reductase (enzyme)
chain: MEEAGSEVMRSVITLLSYWQVGAGLLVVLVLIQALVFLRKKTKKPFLDPSEFQPVPLVEKTLITHNTVRLRFALPDPEQRVGLPIGQHISFKAQGEDGKDVIRPYTPVSDDDQLGAVDFVIKLYPTGKMSQVIAKMQLGDTMLMKGPKGRFTYTPNMVKHFGMLAGGTGITPMFQVLNAILKNPRDTTSVTLLYGNLTEEDILLRKELDELVAMHGNRLTVYHVLNTPPVDKEWSGGSGFISSELIRTKFPAPSSDIMTLRCGPSPMMVAMEKALTDLGYAEDKQFQF
Q: How did the “stoichiometry N” value turn out when B1 was run?
A: 1 crCytb5-R per crARC
